Each block holds one substance with its values, some of them ahead of it.
How the values were obtained:
[1] = target: Fcγ receptors; experiment: cell-based or functional assay
[2] = target: RhD antigen on RhD+ red blood cells (UniProt Q02161); experiment: flow cytometry on RhD+ red blood cells
[3] = target: Recombinant soluble human FcRn (human) (UniProt P55899); experiment: SPR (BIAcore X100), FcRn immobilised, pH 6.0
[4] = target: C1q complement (Calbiochem) (UniProt P02745); experiment: ELISA, 293-F supernatant, vs R603 IgG-WT
[5] = target: FcRn-p3 (fusion protein of β2 microglobulin chain and FcRn α-chain fused to bacteriophage protein p3 and CVDE protein) (UniProt P61769); experiment: ELISA, 293-F supernatant, vs R603 IgG-WT
[6] = target: FcγRI (R&D system) (human) (UniProt P12314); experiment: ELISA, 293-F supernatant, vs R603 IgG-WT
[7] = target: FcγRIIaR131 (R&D system) (human) (UniProt P12318); experiment: ELISA, 293-F supernatant, vs R603 IgG-WT
[8] = target: FcγRIIb (R&D system) (human) (UniProt P31994); experiment: ELISA, 293-F supernatant, vs R603 IgG-WT
[9] = target: Recombinant soluble human FcRn (human) (UniProt P55899); experiment: SPR, FcRn immobilised, pH 6.0; reference R593
[10] = target: FcRn-p3 (fusion protein of β2 microglobulin chain and FcRn α-chain fused to bacteriophage protein p3 and CVDE protein) (UniProt P61769); experiment: ELISA, purified IgG from YB2/0, vs R593 IgG-WT
[11] = target: FcγRI (R&D system) (human) (UniProt P12314); experiment: ELISA, purified IgG from YB2/0, vs R593 IgG-WT
[12] = target: FcγRIIIaF158 (PX Therapeutics, His-tagged) (human) (UniProt P08637); experiment: ELISA, purified IgG from YB2/0, vs R593 IgG-WT
[13] = target: FcγRIIIaV158 (R&D system) (human) (UniProt P08637); experiment: ELISA, purified IgG from YB2/0, vs R593 IgG-WT
[14] = target: FcγRIIaH131 (PX Therapeutics, His-tagged) (human) (UniProt P12318); experiment: ELISA, purified IgG from YB2/0, vs R593 IgG-WT
[15] = target: FcγRIIaR131 (R&D system) (human) (UniProt P12318); experiment: ELISA, purified IgG from YB2/0, vs R593 IgG-WT
[16] = target: FcγRIIb (R&D system) (human) (UniProt P31994); experiment: ELISA, purified IgG from YB2/0, vs R593 IgG-WT
[17] = target: C1q complement (Calbiochem) (UniProt P02745); experiment: cell-based or functional assay
[18] = target: T1, CD20 antigen on Raji lymphoblastoid B cells (UniProt P11836); experiment: flow cytometry on Raji cells
T1 sequence (looked up): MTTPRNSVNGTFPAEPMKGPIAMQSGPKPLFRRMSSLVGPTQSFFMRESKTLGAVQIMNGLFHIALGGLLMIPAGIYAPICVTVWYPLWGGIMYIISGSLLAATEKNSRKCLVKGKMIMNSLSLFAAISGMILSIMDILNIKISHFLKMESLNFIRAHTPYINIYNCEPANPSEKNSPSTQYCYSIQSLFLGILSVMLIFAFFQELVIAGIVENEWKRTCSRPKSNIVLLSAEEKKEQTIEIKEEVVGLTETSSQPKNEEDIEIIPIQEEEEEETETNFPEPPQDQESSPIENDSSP

[19] = target: FcγRIIIaV158 (R&D system) (human) (UniProt P08637); experiment: ELISA, 293-F supernatant, vs R603 IgG-WT
[20] = target: Recombinant soluble human FcRn (human) (UniProt P55899); experiment: SPR, FcRn immobilised, pH 6.0; reference R603
[21] = target: FcRn-p3 (fusion protein of β2 microglobulin chain and FcRn α-chain fused to bacteriophage protein p3 and CVDE protein) (UniProt P61769); experiment: ELISA, purified IgG from YB2/0, vs R603 IgG-WT
[22] = target: FcγRI (R&D system) (human) (UniProt P12314); experiment: ELISA, purified IgG from YB2/0, vs R603 IgG-WT
[23] = target: FcγRIIIaF158 (PX Therapeutics, His-tagged) (human) (UniProt P08637); experiment: ELISA, purified IgG from YB2/0, vs R603 IgG-WT
[24] = target: FcγRIIIaV158 (R&D system) (human) (UniProt P08637); experiment: ELISA, purified IgG from YB2/0, vs R603 IgG-WT
[25] = target: FcγRIIaH131 (PX Therapeutics, His-tagged) (human) (UniProt P12318); experiment: ELISA, purified IgG from YB2/0, vs R603 IgG-WT
[26] = target: FcγRIIaR131 (R&D system) (human) (UniProt P12318); experiment: ELISA, purified IgG from YB2/0, vs R603 IgG-WT
[27] = target: FcγRIIb (R&D system) (human) (UniProt P31994); experiment: ELISA, purified IgG from YB2/0, vs R603 IgG-WT
[28] = target: C1q complement (Calbiochem) (UniProt P02745); experiment: ELISA, 293-F supernatant, vs parent 256N/378V/383N/434Y
[29] = target: FcRn-p3 (fusion protein of β2 microglobulin chain and FcRn α-chain fused to bacteriophage protein p3 and CVDE protein) (UniProt P61769); experiment: as above
[30] = target: FcγRI (R&D system) (human) (UniProt P12314); experiment: as above
[31] = target: FcγRIIaR131 (R&D system) (human) (UniProt P12318); experiment: as above
[32] = target: FcγRIIb (R&D system) (human) (UniProt P31994); experiment: as above
[33] = target: FcRn-p3 (fusion protein of β2 microglobulin chain and FcRn α-chain fused to bacteriophage protein p3 and CVDE protein) (UniProt P61769); experiment: ELISA, purified IgG from YB2/0, vs parent R603-256N/378V/383N/434Y
[34] = target: FcγRI (R&D system) (human) (UniProt P12314); experiment: as above
[35] = target: FcγRIIaH131 (PX Therapeutics, His-tagged) (human) (UniProt P12318); experiment: as above
[36] = target: FcγRIIaR131 (R&D system) (human) (UniProt P12318); experiment: as above
[37] = target: FcγRIIb (R&D system) (human) (UniProt P31994); experiment: as above

Sequence of FcγRIIb (R&D system) (human) (P31994 46-217 limits assumed): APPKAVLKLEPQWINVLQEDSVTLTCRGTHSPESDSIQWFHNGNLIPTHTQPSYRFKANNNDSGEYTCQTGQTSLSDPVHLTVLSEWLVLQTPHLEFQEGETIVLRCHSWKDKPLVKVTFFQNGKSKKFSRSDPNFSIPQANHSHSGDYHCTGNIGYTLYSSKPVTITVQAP
Sequence of FcγRI (R&D system) (human) (P12314 16-288 limits assumed): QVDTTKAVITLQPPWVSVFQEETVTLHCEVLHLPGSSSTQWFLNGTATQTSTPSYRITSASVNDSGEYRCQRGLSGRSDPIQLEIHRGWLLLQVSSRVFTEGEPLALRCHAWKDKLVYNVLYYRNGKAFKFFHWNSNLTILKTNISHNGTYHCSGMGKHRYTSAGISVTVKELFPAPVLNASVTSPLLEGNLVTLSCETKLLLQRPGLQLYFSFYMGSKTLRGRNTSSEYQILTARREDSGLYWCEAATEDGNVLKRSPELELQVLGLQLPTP
Sequence of FcγRIIIaV158 (R&D system) (human) (P08637 17-208 F176V limits assumed): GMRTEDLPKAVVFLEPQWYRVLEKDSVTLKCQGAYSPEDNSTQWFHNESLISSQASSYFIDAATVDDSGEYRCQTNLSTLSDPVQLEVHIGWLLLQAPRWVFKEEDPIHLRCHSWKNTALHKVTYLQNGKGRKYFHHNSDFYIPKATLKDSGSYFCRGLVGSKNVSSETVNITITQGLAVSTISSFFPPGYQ
Sequence of FcγRIIaR131 (R&D system) (human) (P12318 36-218 H167R limits assumed): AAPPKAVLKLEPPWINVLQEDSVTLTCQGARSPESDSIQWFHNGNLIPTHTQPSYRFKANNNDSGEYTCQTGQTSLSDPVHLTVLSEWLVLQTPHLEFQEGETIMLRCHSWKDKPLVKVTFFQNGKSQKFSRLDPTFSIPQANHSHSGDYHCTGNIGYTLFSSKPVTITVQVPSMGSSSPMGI
Sequence of RhD antigen on RhD+ red blood cells (Q02161 2-417 limits assumed): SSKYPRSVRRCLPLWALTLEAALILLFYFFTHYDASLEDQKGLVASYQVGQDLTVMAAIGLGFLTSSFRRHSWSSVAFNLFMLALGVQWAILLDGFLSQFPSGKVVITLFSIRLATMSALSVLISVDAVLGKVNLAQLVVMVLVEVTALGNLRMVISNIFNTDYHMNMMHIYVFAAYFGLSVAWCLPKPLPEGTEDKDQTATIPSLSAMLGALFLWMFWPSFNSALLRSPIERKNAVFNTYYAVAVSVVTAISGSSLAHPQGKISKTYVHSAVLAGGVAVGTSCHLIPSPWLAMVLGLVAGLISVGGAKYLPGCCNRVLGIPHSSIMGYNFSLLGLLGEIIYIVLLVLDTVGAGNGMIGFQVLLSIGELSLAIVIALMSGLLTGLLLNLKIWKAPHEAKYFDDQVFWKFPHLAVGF
Sequence of FcγRIIaH131 (PX Therapeutics, His-tagged) (human) (P12318 34-217 limits assumed): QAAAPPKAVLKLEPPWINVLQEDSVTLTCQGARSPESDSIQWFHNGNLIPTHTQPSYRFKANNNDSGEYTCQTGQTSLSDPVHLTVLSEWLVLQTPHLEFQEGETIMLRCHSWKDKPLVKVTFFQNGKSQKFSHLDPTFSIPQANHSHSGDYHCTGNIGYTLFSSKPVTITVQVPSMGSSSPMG
Sequence of FcγRIIIaF158 (PX Therapeutics, His-tagged) (human) (P08637 17-208 limits assumed): as the sequence (P08637 17-208 F176V limits assumed) above, with V160F counted along it
Sequence of C1q complement (Calbiochem) (P02745 23-245, chain 1 of 3): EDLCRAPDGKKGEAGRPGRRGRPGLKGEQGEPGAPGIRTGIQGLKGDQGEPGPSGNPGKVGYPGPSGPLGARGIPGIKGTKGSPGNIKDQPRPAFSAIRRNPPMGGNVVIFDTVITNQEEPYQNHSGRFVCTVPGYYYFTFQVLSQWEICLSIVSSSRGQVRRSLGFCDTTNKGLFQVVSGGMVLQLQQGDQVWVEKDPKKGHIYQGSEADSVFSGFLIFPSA
Sequence of C1q complement (Calbiochem) (P02746 28-253, chain 2 of 3, further chain): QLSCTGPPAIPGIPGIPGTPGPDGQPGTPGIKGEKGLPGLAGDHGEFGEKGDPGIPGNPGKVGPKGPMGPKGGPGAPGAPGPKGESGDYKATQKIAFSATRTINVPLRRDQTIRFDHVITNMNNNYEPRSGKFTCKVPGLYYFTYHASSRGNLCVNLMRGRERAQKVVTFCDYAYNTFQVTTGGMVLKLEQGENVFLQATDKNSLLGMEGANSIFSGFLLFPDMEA
Sequence of C1q complement (Calbiochem) (P02747 29-245, chain 3 of 3, further chain): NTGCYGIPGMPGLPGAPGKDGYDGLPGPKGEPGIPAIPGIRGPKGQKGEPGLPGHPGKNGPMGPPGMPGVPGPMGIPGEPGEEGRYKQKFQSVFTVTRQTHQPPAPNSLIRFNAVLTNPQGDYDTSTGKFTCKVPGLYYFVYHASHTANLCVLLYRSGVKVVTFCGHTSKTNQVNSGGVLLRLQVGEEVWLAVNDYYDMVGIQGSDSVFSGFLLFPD

Substance: R603 anti-CD20 IgG1 variant 294Del/434S (antibody)
Ratio/IgG-WT [4]: 0.25
Ratio/IgG-WT [5]: 2.64
Ratio/IgG-WT [6]: 0.49
Ratio/IgG-WT [7]: 0.02
Ratio/IgG-WT [8]: 0.05

Substance: R603 anti-CD20 IgG1 variant 294Del/302A (antibody)
Ratio/IgG-WT [4]: 0.21
Ratio/IgG-WT [5]: 0.66
Ratio/IgG-WT [6]: 0.06
Ratio/IgG-WT [7]: 0.02
Ratio/IgG-WT [8]: 0.06

Substance: R593 anti-RhD+ IgG1 variant 259I/315D/434Y (antibody)
ADCC EC50 (ng/ml), lysis of RhD+ red cells [1]: 14.2 ng/mL
ADCC Max. Lysis (%) [1]: 89%
Ag binding MFI (Arbitrary Unit) [2]: 47.2
Kd [3]: 20.4 nM
Ratio WT/IgG (KD) [9]: 9.31
Ratio/IgG-WT [10]: 7.93
Ratio/IgG-WT [11]: 1.08
Ratio/IgG-WT [12]: 0.94
Ratio/IgG-WT [13]: 0.95
Ratio/IgG-WT [14]: 0.94
Ratio/IgG-WT [15]: 1.05
Ratio/IgG-WT [16]: 1.41

Substance: R603 anti-CD20 IgG1 variant 294Del/307A (antibody)
Ratio/IgG-WT [4]: 0.46
Ratio/IgG-WT [5]: 1.94
Ratio/IgG-WT [6]: 0.35
Ratio/IgG-WT [7]: 0.01
Ratio/IgG-WT [8]: 0.2

Substance: R603 anti-CD20 IgG1 variant 294Del (antibody)
Ag binding MFI (Arbitrary Unit) [18]: 126
Kd [3]: 190 nM

Substance: R603 anti-CD20 IgG1 variant 230S/294Del/315D/428L/434Y (antibody)
Ratio/IgG-WT [4]: 0.35
Ratio/IgG-WT [5]: 3.86
Ratio/IgG-WT [6]: 0.25
Ratio/IgG-WT [7]: 0.01
Ratio/IgG-WT [8]: 0.02

Next, values leading:

ADCC EC50 (ng/ml), lysis of RhD+ red cells [1]: 75.9 ng/mL
ADCC Max. Lysis (%) [1]: 5%
Ag binding MFI (Arbitrary Unit) [2]: 52.6
Kd [3]: 204 nM
Substance: R593 anti-RhD+ IgG1 variant 294Del (antibody)

Ratio/IgG-WT [5]: 1.46
Ratio/IgG-WT [6]: 0.33
Ratio/IgG-WT [7]: 0.06
Ratio/IgG-WT [8]: 0.11
Substance: R603 anti-CD20 IgG1 variant 294Del/378V (antibody)

CDC EC50 [17]: 0.41 µg/mL
Ag binding MFI (Arbitrary Unit) [18]: 137
Ratio/IgG-WT [4]: 1.26
Ratio/IgG-WT [5]: 4.32
Ratio/IgG-WT [6]: 0.82
Ratio/IgG-WT [19]: 1.08
Ratio/IgG-WT [7]: 1.23
Ratio/IgG-WT [8]: 1.07
Kd [3]: 26.9 nM
Ratio WT/IgG (KD) [20]: 3.68
Ratio/IgG-WT [21]: 6.93
Ratio/IgG-WT [22]: 1.12
Ratio/IgG-WT [23]: 1.11
Ratio/IgG-WT [24]: 1.11
Ratio/IgG-WT [25]: 0.99
Ratio/IgG-WT [26]: 1.11
Ratio/IgG-WT [27]: 1.54
Substance: R603 anti-CD20 IgG1 variant 259I/315D/434Y (antibody)

ADCC EC50 (ng/ml), lysis of RhD+ red cells [1]: 11.1 ng/mL
ADCC Max. Lysis (%) [1]: 93%
Ag binding MFI (Arbitrary Unit) [2]: 49.6
Kd [3]: 42 nM
Ratio WT/IgG (KD) [9]: 4.52
Ratio/IgG-WT [10]: 7.49
Ratio/IgG-WT [11]: 2.19
Ratio/IgG-WT [12]: 0.92
Ratio/IgG-WT [13]: 0.98
Ratio/IgG-WT [14]: 1.01
Ratio/IgG-WT [15]: 1.08
Ratio/IgG-WT [16]: 1.55
Substance: R593 anti-RhD+ IgG1 variant 256N/378V/383N/434Y (antibody)

Ratio/IgG-WT [4]: 3.65
Ratio/IgG-WT [5]: 4.63
Ratio/IgG-WT [6]: 0.93
Ratio/IgG-WT [19]: 2.09
Ratio/IgG-WT [7]: 2.59
Ratio/IgG-WT [8]: 4.77
Ratio/IgG-WT [21]: 8.51
Ratio/IgG-WT [22]: 2.19
Ratio/IgG-WT [23]: 1.25
Ratio/IgG-WT [24]: 1.22
Ratio/IgG-WT [25]: 0.93
Ratio/IgG-WT [26]: 1.4
Ratio/IgG-WT [27]: 1.83
Substance: R603 anti-CD20 IgG1 variant 256N/378V/383N/434Y (antibody)

Ratio/IgG-WT [4]: 0.25
Ratio/IgG-WT [5]: 0.84
Ratio/IgG-WT [6]: 0.68
Ratio/IgG-WT [7]: 0.03
Ratio/IgG-WT [8]: 0.04
Substance: R603 anti-CD20 IgG1 variant 294Del/397M (antibody)

ratio to the IgG1 without 294Del [28]: 0.04
ratio to the IgG1 without 294Del [29]: 0.75
ratio to the IgG1 without 294Del [30]: 0.66
ratio to the IgG1 without 294Del [31]: 0.004
ratio to the IgG1 without 294Del [32]: 0.002
ratio to the IgG1 without 294Del [33]: 1.04
ratio to the IgG1 without 294Del [34]: 0.07
ratio to the IgG1 without 294Del [35]: 0.09
ratio to the IgG1 without 294Del [36]: 0.06
ratio to the IgG1 without 294Del [37]: 0.25
Substance: R603 anti-CD20 IgG1 variant 256N/294Del/378V/383N/434Y (antibody)

Ratio/IgG-WT [4]: 0.29
Ratio/IgG-WT [5]: 1.16
Ratio/IgG-WT [6]: 0.4
Ratio/IgG-WT [8]: 0.21
Substance: R603 anti-CD20 IgG1 variant 294Del/315D (antibody)
